In patent publication US20250188162A1, “INHIBITOR OF INTERLEUKIN-1 RECEPTOR TYPE 1 FOR USE IN THE TREATMENT OF CANCER” (Buzzard Pharmaceuticals AB, priority 2022, published 2025):

What was measured:
[1] = 133 mg/h for 72 hours; cited from earlier work
[2] = system: RAW264.7 macrophages; assay: MTT reduction of RAW264.7 macrophages treated with Cu-CPT22; format: cell-based, murine; details: MTT reduction at 72 hours post-LPS/VCAN
[3] = system: NF-κB; assay: NF-κB reporter bioluminescence of NGL RAW264.7 macrophages pre-treated with Cu-CPT22 and exposed to VCAN; format: cell-based, murine; details: 1 nM recombinant VCAN, bioluminescence at 24 hours
[4] = system: Kras-mutant cancer cells; assay: malignant pleural effusion model of κB.luc mice with pleural LLC cells treated with Cu-CPT22; format: in vivo; details: daily intraperitoneal 20 mg/kg, 14 days post-pleural LLC cells
[5] = system: Kras-mutant cancer cells; assay: intrapleural LLC κB.LUC reporter malignant pleural effusion model treated with Isunakinra; format: in vivo, mice; details: daily intraperitoneal 20 mg/Kg from day 5 post-intrapleural LLC cells
Protocol: (§1) FIG. 6. Pharmacologic abolition of non-oncogene addiction of Kras-mutant tumors to IL-1β. […] (A) FVB (n=10) and C57BL/6 (n=45) mice received subcutaneous injections of 5×10^6 FULA1 (FVB mice) or LLC, MC38, B16F10, or PANO2 (C57BL/6 mice) cells that carry G12C, G13R, Q61R, or wild-type (WT) Kras alleles. Mice were allowed 10-17 days for tumor take, and were treated with daily intraperitoneal phosphate buffered saline (PBS) or 20 mg/Kg (LLC cells) or 50 mg/Kg (all other cells) Isunakinra until control tumor volume reached 1 cm3 (PANO2 cells) or 2 cm3 (all other cell lines). Shown are therapy (Tx) start, mouse numbers (n), tumor volume as mean (circles) and SD (bars), two-way ANOVA probability (P) for treatment effects, and average Isunakinra effect at the last time-points (%). ** and ***: P<0.01 and P<0.001, respectively, Bonferroni post-tests. (B-D) C57BL/6 mice (n=48) received intrapleural 2×10^5 LLC cells stably expressing a κB.LUC reporter (NGL), were allowed five days for tumor take, and received daily intraperitoneal PBS or 20 mg/Kg Isunakinra. Mice were sacrificed when morbid (n=17/treatment) or at day 14 post-LLC cells (n=7/treatment), after 1 mg intravenous D-luciferin and bioluminescence imaging. […]

[6] = system: KrasMUT tumors; assay: subcutaneous tumor growth in mice with established tumors treated with Isunakinra; format: in vivo; details: daily intraperitoneal 20 or 50 mg/Kg from 10-17 days post tumor cells; FULA1, LLC, MC38 (Kras-mutant) vs B16F10, PANO2 (WT)
Protocol: as §1

IL-1RA: IL-1 receptor antagonist protein, natural antagonist of IL-1α and IL-1β
clinical or laboratory values [1]: no change in clinical or laboratory values

CCCCCCOC(=O)c1cc(O)c(=O)c2c(O)c(O)c(OC)cc2c1 [Cu-CPT22, 3,4,6-Trihydroxy-2-methoxy-5-oxo-5H-benzocycloheptene-8-carboxylic acid hexyl ester]
concentration range inhibiting cellular survival [2]: low micromolar range
concentration range inhibiting VCAN induced NF-κB activation [3]: low micromolar range
VCAN-induced myeloid NF-κB activation and MPE [4]: blocks versican (VCAN)-induced myeloid NF-κB activation and MPE of Kras-mutant cancer cells in vivo
tumor growth in vivo [4]: blocked tumor growth in vivo at clinically relevant concentrations

B1: Isunakinra: protein chimera of IL-1β and IL-1 receptor antagonists comprising P05 (SEQ ID NO: 5); binds IL1R1 (protein)
chain: APVRSLNCRIWDVNQKTFYLRNNQLVAGYLQGPNVNLEEKFSMSFVQGEESNDKIPVALGLKEKNLYLSCVLKDDKPTLQLESVDPKNYPKKKMEKRFVFNKIEINNKLEFESAQFPNWFLCTAMEADQPVSLTNMPDEGVMVTKFYMQFVSS
modifications: P05
NF-κB activation in KrasMUT cancer cells in vivo (chest bioluminescence) [5]: limited nuclear factor (NF)-κB activation in KrasMUT cancer cells in vivo
malignant pleural effusions (MPE) [5]: limits nuclear factor (NF)-κB activation and malignant pleural effusions (MPE) from Kras-mutant cancer cells
s.c. tumor growth (tumor volume) [6]: specifically inhibited s.c. growth of KrasMUT tumors
